Series [1] is described as follows: Thermal stability by Differential Scanning calorimetry (DSC). The series is classed as physicochemical. Here is the method:
There is a correlation between the thermal stability of a protein with the overall stability of the protein. Enhanced thermal stability often provides improved manufacturability and longer shelf life/stability. Thermal stability of variant CD80-Fc fusion proteins was assessed by Differential Scanning calorimetry (DSC). Variant CD80-Fc fusion proteins were analyzed using a MicroCal VP-DSC instrument. […] Tables 8-10 show the first thermal transition temperature (Tm1) of CD80-Fc fusion proteins and the enhanced thermal stability of variant CD80-Fc fusion proteins compared to CD80-WT-Fc fusion proteins.
(In general: In DSC, transitions show as peaks or steps in heat flow.)

Series [2] can be described thus: Thermal forced aggregation (SEC). The class given is physicochemical. Conditions: 24 hours, PBS. Here is the method:
To assess the aggregation propensity of variant CD80-Fc fusion proteins, 1 mg/ml of CD80-Fc fusion protein was incubated in PBS at increasing temperatures for 24 hours. The samples were analyzed by SEC on an Agilent 1100 (Agilent Technologies, Germany) HPLC system using a YMC-Pack Diol-200 (YMC, Germany) analytical size exclusion chromatography column and PBS supplemented to 400 mM NaCl as running buffer. % aggregation was calculated from the loss of intact peak area. […] ND=Not Determined.

Series [3] can be described thus: AC-SINS self-interaction assay. The series is classed as physicochemical. Here is the method: Variant CD80-Fc fusion proteins were assessed by measuring non-specific binding using a DNA- and insulin-binding ELISA (Avery et al., MAbs. 2018 February/March; 10(2): 244-255) and for self-interaction in an AC-SINS assay (affinity-capture self-interaction nanoparticle spectroscopy; Liu et al., 2014, mAbs 6:483-92). DNA- and insulin-binding scores were calculated as the signal ratio of the ELISA signal of the CD80-Fc fusion protein at 10 μg/ml to the ELISA signal in the absence of the Fc-fusion protein (buffer only). For the AC-SINS assay, proteins are captured by anti-human Fc antibodies coated on gold nanoparticles. […] The score ranges obtained from these in vitro assays correlate well with in vivo clearance using huFcRn transgenic (Tg32) mouse. Therapeutic proteins with high scores are at high risk for rapid clearance and unfavorable PK and therapeutics that score low are at low risk and favorable PK.

The test system of series [4] is Renca murine renal carcinoma tumor cells. Nature of the series: Renca murine renal carcinoma model. The class given is in vivo, mouse. The conditions noted are these: for % tumor growth inhibition: Day 18; for # IFNγ-producing spots (splenic tumor-reactive T cells): spleen Day 9, average of n = 4 mice; for CD8^+ T cell infiltrates (% CD45): Renca, ~1 week after first dose, n=4. Here is the method: Renca murine renal carcinoma tumor cells (1 million) were subcutaneously implanted in the hind flank of female Balb/c mice. Five days after tumor implantation, PBS vehicle control or variant CD80-Fc fusion proteins were dosed intravenously at 0.3 and 1 mg/kg (on Day 0 and Day 3) or 3 mg/kg (Day 0, Day 3 and Day 6). Tumor volume was determined by caliper measurements obtained in 2 dimensions and calculated as width^2×length/2. Error bars are depicted as ±SEM.
Pharmacodynamic (PD) modulation with variant CD80-Fc fusion proteins was assessed by measuring tumor-reactive T cells in the spleen using IFNγ ELIspot. Single-cell suspensions were generated from dissociated spleens taken at Day 9 after the first dose of CD80-Fc. Splenocytes were incubated with irradiated tumor cells overnight at 37° C., and the number of IFNγ-producing spots were measured using the IFNγ ELIspot Kit (BD Biosciences #551083).
Cytotoxic CD8^+ T cells are responsible for killing cancer cells and the measurement of CD8^+ T cells that have infiltrated tumors commonly correlates with efficacy for immune-oncology therapies. For all in vivo studies, tumors were collected ˜1 week after the first dose and dissociated by mincing, followed by incubation in an enzymatic digestion cocktail and homogenization. The resulting cell suspension was filtered and washed, and single cells were stained with antibodies to CD45, CD8, and a viability dye to detect tumor-infiltrating lymphocytes (TILs) by flow cytometry. Data were acquired on a BD LSRFortessa flow cytometer or a Cytek Aurora spectral flow cytometer. Table 31 and FIG. 18 show the amount of tumor-infiltrating CD8+ T cells expressed as a percentage of total immune cells (CD45+). Each value is the average of n=4 mice per group. Treatment with all variant CD80-Fc fusion proteins led to increase in CD8+ TILs in various tumor models.

In series [5] the test system is Jurkat-IL-2-Luc reporter cells. Nature of the series: Jurkat-IL-2-Luc and HCT116-CD64 reporter co-stimulation assay. Conditions: for EC50: Table 17, 20 ng/ml CDH3×CD3 bispecific, n=2. The series is classed as cell-based, human. From the text:
A T cell co-stimulation assay was designed based on T Cell Activation Bioassay (IL-2) Kit from Promega (Product #J1631). The assay consisted of a genetically engineered Jurkat T cell line that expresses luciferase reporter driven by an IL-2 promoter. Co-engagement of T cell antigen receptor (TCR/CD3) and CD28 co-stimulatory receptor induces activation of T cells and downstream intracellular signaling pathways that in turn regulate the expression of luciferase reporter. As described above, HCT116 human colon cancer cell line was used for TCR engagement using the CDH3×CD3 bispecific and genetically engineered by lentiviral transduction to express human FCγRI.
A 96 well culture plate was seeded with HCT116 parental or HCT116-CD64 cells at 40,000 cells per well in 100 μL RPMI with 10% HI FBS and grown overnight at 37° C. in CO2 incubator. To each well, Jurkat reporter cells (100,000 per well) and 10 μL of the CDH3×CD3 bispecific (8 ng/ml final concentration) were added. 10 μL of serial dilutions of variant CD80-Fc fusion proteins with concentrations ranging from 0-1000 ng/ml (final concentrations per well) was added with appropriate controls. Assay plates were incubated for 6 hours at 37° C. in CO2 incubator for before harvesting culture supernatants and transferring to new plates. Following equilibration, 80 μL of BioGlo luminescence reagent (BioGlo Luciferase assay kit, Promega, G7940) was added into each well. Plates were incubated for 5 minutes before reading luminescence on the EnSight™ plate reader (PerkinElmer).
Jurkat is an immortalized human T cell line, and the Jurkat IL-2-reporter assay assesses the CD28-mediated signaling resulting in activation of the IL-2 promoter. The activity of CD80-Fc fusion proteins was measured using the co-culture HCT116-CD64-Jurkat IL-2 reporter assay, as described in Example 2, but using 20 ng/ml CDH3×CD3 bispecific.

In the case of “CD80-D90Q-Fc: variant CD80 ECD (D90Q) fused to human IgG1 Fc”, the “DSC Tm1” value in series [1] (PBS) is 59.83 ± 0.08 °C. In addition, the “% aggregation” value in series [2] (Table 11, 40° C.) is on record as 81.6%; in series [2] (Table 11, 45.3° C.), 89.5%; in series [2] (Table 11, 49.4° C.), 89.5%. In addition, the “AC-SINS Score” value in series [3] (Table 6) was 0. In addition, the “Number of tumor-free mice” value is reported as 4/10 in series [4] (0.3 mg/kg), 4/10 in series [4] (1 mg/kg) and 8/10 in series [4] (3 mg/kg). Further, the “Day 18 tumor volume” value in series [4] (0.3 mg/kg IV, Day 0 and 3) is recorded as 248.2 ± 126.1 mm^3; in series [4] (1 mg/kg IV, Day 0 and 3), 157.6 ± 64.2 mm^3; in series [4] (3 mg/kg IV, Day 0, 3 and 6) it was 72.0 ± 41.6 mm^3. The “% tumor growth inhibition” value in series [4] (0.3 mg/kg) came to 81.4%; in series [4] (1 mg/kg), 89.6%; in series [4] (3 mg/kg) it was 97.1%. Also, the “# IFNγ-producing spots (splenic tumor-reactive T cells)” value (“# IFNγ-producing spots” below) in series [4] (3 mg/kg) was determined as 334.75. For the same substance, the “CD8^+ T cell infiltrates (% CD45)” value in series [4] (3 mg/kg) is given as 24.2 % CD45.
For the substance “CD80-K89D-D90K-T28V-T57V-Fc: non-cysteine stabilized variant CD80-Fc fusion protein (K89D, D90K, T28V, T57V)”, the “DSC Tm1” value was 65.11 ± 0.23 °C in series [1] (Glu pH 4.5), 68.57 ± 0.74 °C in series [1] (His pH 5.8), 63.70 ± 0.07 °C in series [1] (PBS) and 66.94 ± 1.6 °C in series [1] (Tris pH 7.5). In series [5], this substance displayed an EC50 of 0.047 ± 0.004 nM. The “% aggregation” value in series [2] (Table 12, 40° C.) amounted to 0.6%; in series [2] (Table 12, 45.3° C.), 6.0%; in series [2] (Table 12, 49.4° C.), 62.8%; in series [2] (Table 12, 54.9° C.), 72.5%. Besides, in series [3] (Table 7), the “AC-SINS Score” value is −1.
On to “CD80-K89Q-D90Q-E23C-A26C-Fc: disulfide stabilized variant CD80-Fc fusion protein (K89Q, D90Q, E23C, A26C)”, for which the “DSC Tm1” value in series [1] (PBS) is 67.28 ± 0.2 °C. Further, a half-maximal effect in series [5] (EC50) was put at 0.27 ± 0.044 nM. Also, the “% aggregation” value in series [2] (Table 11, 54.9° C.) came to 3.2%; in series [2] (Table 11, 59.1° C.), 22.8%; in series [2] (Table 11, 64° C.) it was 36.2%; in series [2] (Table 12, 40° C.), 0.6%; in series [2] (Table 12, 45.3° C.), 2.9%; in series [2] (Table 12, 49.4° C.), 0.5%. In addition, the “% aggregation” value in series [2] (Table 12, 54.9° C.) is 6.7%; in series [2] (Table 12, 59.1° C.), 55.9%; in series [2] (Table 12, 64° C.) it was 68.8%. For the same substance, in series [3] (Table 6), the “AC-SINS Score” value is listed as −1.
As for “CD80-K89Q-D90Q-Fc: variant CD80 ECD (K89Q, D90Q) fused to human IgG1 Fc”, the “DSC Tm1” value in series [1] (PBS) is 59.67 ± 0.10 °C. Moreover, the “enhanced co-stimulation compared to CD80-WT-Fc” value in series [5] is given as “about 4 fold”. The “% aggregation” value in series [2] (Table 11, 40° C.) was found to be 69.9%; in series [2] (Table 11, 45.3° C.), 77.7%; in series [2] (Table 11, 49.4° C.) it was 78.0%. The “AC-SINS Score” value in series [3] (Table 6) is 0. The “Number of tumor-free mice” value in series [4] (0.3 mg/kg) is listed as 2/10; in series [4] (1 mg/kg), 3/10; in series [4] (3 mg/kg), 8/10. The “Day 18 tumor volume” value in series [4] (0.3 mg/kg IV, Day 0 and 3) was 743.2 ± 159.5 mm^3; in series [4] (1 mg/kg IV, Day 0 and 3), 192.6 ± 89.3 mm^3; in series [4] (3 mg/kg IV, Day 0, 3 and 6) it was 43.2 ± 21.8 mm^3. Also, the “% tumor growth inhibition” value in series [4] (0.3 mg/kg) was determined as 37.4%; in series [4] (1 mg/kg) it was 86.1%; in series [4] (3 mg/kg), 99.8%. In addition, the “# IFNγ-producing spots” value in series [4] (3 mg/kg) is 152.17. Moreover, in series [4] (3 mg/kg), the “CD8^+ T cell infiltrates (% CD45)” value stood at 36.7 % CD45.
For “CD80-WT-Fc: wild-type human CD80 extracellular domain fused to human IgG1 Fc (C220S) [reference compound]”, the “DSC Tm1” value in series [1] (Glu pH 4.5) came to 62.78 ± 0.03 °C; in series [1] (His pH 5.8) it was 63.40 ± 0.35 °C; in series [1] (PBS), 59.52 ± 0.07 °C; in series [1] (Tris pH 7.5) it was 64.77 ± 0.14 °C. The substance further came in with an EC50 in series [5] of 0.58 ± 0.074 nM. In addition, the “% aggregation” value in series [2] (Table 11, 40° C.) stood at 18.0%; in series [2] (Table 11, 45.3° C.), 45.4%; in series [2] (Table 11, 49.4° C.), 50.8%; in series [2] (Table 12, 40° C.) it was 0.6%; in series [2] (Table 12, 45.3° C.), 64.9%; in series [2] (Table 12, 49.4° C.) it was 83.4%. Moreover, the “AC-SINS Score” value in series [3] (Table 6) and in series [3] (Table 7) was 0 each time. Moreover, the “Number of tumor-free mice” value is on record as 5/10 in series [4] (0.3 mg/kg), 5/10 in series [4] (1 mg/kg) and 6/7 in series [4] (3 mg/kg). In addition, the “Day 18 tumor volume” value came to 199.0 ± 114.0 mm^3 in series [4] (0.3 mg/kg IV, Day 0 and 3); 79.6 ± 25.5 mm^3 in series [4] (1 mg/kg IV, Day 0 and 3); 73.0 ± 69.0 mm^3 in series [4] (3 mg/kg IV, Day 0, 3 and 6). For the same substance, the entries for the “% tumor growth inhibition” value in series [4] (0.3 mg/kg), in series [4] (1 mg/kg) and in series [4] (3 mg/kg) were 85.6%, 96.2% and 93.7%, respectively. Moreover, the “# IFNγ-producing spots” value was 373.67 in series [4] (0.3 mg/kg), 271.08 in series [4] (1 mg/kg) and 288.5 in series [4] (3 mg/kg). In series [4] (3 mg/kg), the “CD8^+ T cell infiltrates (% CD45)” value is 38.6 % CD45.

For orientation: EC50 means the concentration giving half of the maximal effect.

These data come from US20240209061A1, “FUSION PROTEINS AND USES THEREOF” (Pfizer Inc., priority 2020, published 2024).
